Experimental data published in patent publication US20260008815A1, “CYCLIC PEPTIDE OR SALT THEREOF, AND USES THEREOF” (FUJIFILM Corporation, priority 2023, published 2026).
Bridge positions count the residues as written; N and C are the ends. Ends that are not written are not given here. COCH2 = acetyl group that carries the bridge

What follows are binders tested against T1, Recombinant Human FGFR2 alpha (IIIc) Fc Chimera Protein, CF (R&D systems, 712-FR-050) (human, UniProt P21802 22-377) (assay: ELISA on plate-bound FGFR2-Fc).
T1 construct: bought; not shown: Fc part of the chimera
T1 sequence (P21802 22-377, change not shown): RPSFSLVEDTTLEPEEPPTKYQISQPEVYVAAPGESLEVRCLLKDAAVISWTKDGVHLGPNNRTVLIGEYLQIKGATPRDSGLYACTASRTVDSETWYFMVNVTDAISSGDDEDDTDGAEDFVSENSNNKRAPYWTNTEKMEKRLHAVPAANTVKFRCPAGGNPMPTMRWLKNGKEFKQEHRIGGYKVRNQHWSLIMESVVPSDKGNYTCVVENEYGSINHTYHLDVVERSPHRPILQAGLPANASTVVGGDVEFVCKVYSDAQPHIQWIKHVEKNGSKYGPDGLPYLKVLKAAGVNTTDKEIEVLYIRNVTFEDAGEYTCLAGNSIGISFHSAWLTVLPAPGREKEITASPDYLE
Experimental: First, 5 ng of Recombinant Human FGFR2 alpha (IIIc) Fc Chimera Protein (R&D systems, 712-FR-050) was immobilized in each well of a 96-well plate, and blocked with Pierce Protein-Free (PBS) Blocking Buffer (Thermo, 37572), and a peptide diluted with Can Get Signal Immunoreaction Enhancer Solution I (TOYOBO, NKB-101) was then added and reacted at room temperature for 3 hours. After washing with 0.05% Tween 20-containing phosphate buffered saline (PBS), an anti-Myc antibody (Cell Signaling, 14038S) diluted with Can Get Signal Immunoreaction Enhancer Solution II (TOYOBO, NKB-101) was added and reacted at room temperature for 2 hours. After washing with 0.05% Tween 20-containing PBS, SuperSignal ELISA Femto Substrate (Thermo, 37075) was added, and the luminescence amount was measured. The dose-response relationship was calculated from using the difference between the luminescence amount in the well in which FGFR was immobilized and the luminescence amount in the well in which FGFR was not immobilized, and the concentration of the peptide at the time of reaction, and the binding affinity to FGFR was evaluated according to the following evaluation criteria. The evaluation result preferably satisfies the evaluation criteria A, B, or C.

Row | ELISA luminescence signal at 10 nmol/L peptide, relative to SEQ ID NO: 47 (=1) [ratio] | Binder
1 | ≥ 0.7 | YCEENYLTPEQYQYFIYFK(COCH2)Y (thioether 2-19 (inferred)) [cyclic peptide SEQ ID NO: 217]
2 | ≥ 0.7 | YCEENYLDTEQYQYFIYFK(COCH2)Y (thioether 2-19 (inferred)) [cyclic peptide SEQ ID NO: 231]
3 | ≥ 0.7 | YCEENYLDYEQYQYFIYFK(COCH2)Y (thioether 2-19 (inferred)) [cyclic peptide SEQ ID NO: 226]
4 | ≥ 0.7 | YCEENYLDPYQYQYFIYFK(COCH2)Y (thioether 2-19 (inferred)) [cyclic peptide SEQ ID NO: 242]
5 | ≥ 0.7 | YCEENYLDPDQYQYFIYFK(COCH2)Y (thioether 2-19 (inferred)) [cyclic peptide SEQ ID NO: 248]
6 | ≥ 0.7 | YCEENYLDPRQYQYFIYFK(COCH2)Y (thioether 2-19 (inferred)) [cyclic peptide SEQ ID NO: 249]
7 | ≥ 0.7 | YCEENYLDPIQYQYFIYFK(COCH2)Y (thioether 2-19 (inferred)) [cyclic peptide SEQ ID NO: 239]
8 | ≥ 0.7 | YCEENYLDPNQYQYFIYFK(COCH2)Y (thioether 2-19 (inferred)) [cyclic peptide SEQ ID NO: 244]
9 | ≥ 0.7 | YCEENYLDIEQYQYFIYFK(COCH2)Y (thioether 2-19 (inferred)) [cyclic peptide SEQ ID NO: 223]
10 | 0.1 to 0.5 | YCEENYLRPEQYQYFIYFK(COCH2)Y (thioether 2-19 (inferred)) [cyclic peptide SEQ ID NO: 219]
11 | ≥ 0.7 | YCEENYLDNEQYQYFIYFK(COCH2)Y (thioether 2-19 (inferred)) [cyclic peptide SEQ ID NO: 228]
12 | ≥ 0.7 | YCEENYLDVEQYQYFIYFK(COCH2)Y (thioether 2-19 (inferred)) [cyclic peptide SEQ ID NO: 224]
13 | ≥ 0.7 | YCEENYLDDEQYQYFIYFK(COCH2)Y (thioether 2-19 (inferred)) [cyclic peptide SEQ ID NO: 232]
14 | ≥ 0.7 | YCEENYLDPLQYQYFIYFK(COCH2)Y (thioether 2-19 (inferred)) [cyclic peptide SEQ ID NO: 238]
15 | ≥ 0.7 | YCEENYLDPFQYQYFIYFK(COCH2)Y (thioether 2-19 (inferred)) [cyclic peptide SEQ ID NO: 241]
16 | ≥ 0.7 | YCEENYLDFEQYQYFIYFK(COCH2)Y (thioether 2-19 (inferred)) [cyclic peptide SEQ ID NO: 225]
17 | ≥ 0.7 | YCEENYLDEEQYQYFIYFK(COCH2)Y (thioether 2-19 (inferred)) [cyclic peptide SEQ ID NO: 233]

Row | ELISA luminescence signal at 10 nmol/L peptide, relative to SEQ ID NO: 47 (=1) [ratio] | Binder
18 | ≥ 0.7 | YCEENYLDSEQYQYFIYFK(COCH2)Y (thioether 2-19 (inferred)) [cyclic peptide SEQ ID NO: 230]
19 | ≥ 0.7 | YCEENYLDPVQYQYFIYFK(COCH2)Y (thioether 2-19 (inferred)) [cyclic peptide SEQ ID NO: 240]
20 | ≥ 0.7 | YCEENYLEPEQYQYFIYFK(COCH2)Y (thioether 2-19 (inferred)) [cyclic peptide SEQ ID NO: 218]
21 | 0.1 to 0.5 | YCEENYLDPGQYQYFIYFK(COCH2)Y (thioether 2-19 (inferred)) [cyclic peptide SEQ ID NO: 236]
22 | ≥ 0.7 | YCEENYLDREQYQYFIYFK(COCH2)Y (thioether 2-19 (inferred)) [cyclic peptide SEQ ID NO: 234]
23 | ≥ 0.7 | YCEENYLDPPQYQYFIYFK(COCH2)Y (thioether 2-19 (inferred)) [cyclic peptide SEQ ID NO: 237]
24 | ≥ 0.7 | YCEENYLDPSQYQYFIYFK(COCH2)Y (thioether 2-19 (inferred)) [cyclic peptide SEQ ID NO: 246]
25 | ≥ 0.7 | YCEENYLDHEQYQYFIYFK(COCH2)Y (thioether 2-19 (inferred)) [cyclic peptide SEQ ID NO: 235]
26 | ≥ 0.7 | YCEENYLHPEQYQYFIYFK(COCH2)Y (thioether 2-19 (inferred)) [cyclic peptide SEQ ID NO: 220]
27 | ≥ 0.7 | YCEENYLDQEQYQYFIYFK(COCH2)Y (thioether 2-19 (inferred)) [cyclic peptide SEQ ID NO: 229]
28 | ≥ 0.7 | YCEENYLDPWQYQYFIYFK(COCH2)Y (thioether 2-19 (inferred)) [cyclic peptide SEQ ID NO: 243]
29 | ≥ 0.7 | YCEENYLDPTQYQYFIYFK(COCH2)Y (thioether 2-19 (inferred)) [cyclic peptide SEQ ID NO: 247]
30 | ≥ 0.7 | YCEENYLDPQQYQYFIYFK(COCH2)Y (thioether 2-19 (inferred)) [cyclic peptide SEQ ID NO: 245]
31 | ≥ 0.7 | YCEENYLDLEQYQYFIYFK(COCH2)Y (thioether 2-19 (inferred)) [cyclic peptide SEQ ID NO: 222]
32 | ≥ 0.7 | YCEENYLDWEQYQYFIYFK(COCH2)Y (thioether 2-19 (inferred)) [cyclic peptide SEQ ID NO: 227]
33 | ≥ 0.7 | YCEENYLDGEQYQYFIYFK(COCH2)Y (thioether 2-19 (inferred)) [cyclic peptide SEQ ID NO: 221]
